This is an account of results in patent US20130011412A1.

For this experiment, the target named is T1, recombinant human lymphotoxin-α homotrimer (human LTα3) (human) (UniProt P01374).
T1 sequence (looked up): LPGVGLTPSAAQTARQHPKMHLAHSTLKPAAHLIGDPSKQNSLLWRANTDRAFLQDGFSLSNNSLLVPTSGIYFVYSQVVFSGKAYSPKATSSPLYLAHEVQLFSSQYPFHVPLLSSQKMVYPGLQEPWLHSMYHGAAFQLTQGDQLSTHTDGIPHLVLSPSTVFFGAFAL
Briefly: plate-based ELISA against LTα.

B1: 3F12 version 8 (3F12.v5 with G95A, CDR-H3) (antibody, IgG1, V domains shown)
VH: EVQLVESGGGLVQPGGSLRLSCAASGYTFSSYWIEWVRQAPGKGLEWVGEISPGSGSTNYNEEFKGRATFSADNSKNTAYLQMNSLRAEDTAVYYCADAYHGYWGQGTLVTVSS
VL: DIQMTQSPSSLSASVGDRVTITCKSSQSLLYSTNQKNFLAWYQQKPGKAPKLLIYWASTRDSGVPSRFSGSGSGTDFTLTISSLQPEDFATYYCQQYYSYPRTFGQGTKVEIK
As for B1, the relative binding (EC50 of the variant / EC50 of version 5) is more than 100.

B2: 3F12 version 10 (3F12.v5 with H100A, CDR-H3) (antibody, IgG1, V domains shown)
VH: EVQLVESGGGLVQPGGSLRLSCAASGYTFSSYWIEWVRQAPGKGLEWVGEISPGSGSTNYNEEFKGRATFSADNSKNTAYLQMNSLRAEDTAVYYCADGYAGYWGQGTLVTVSS
VL: DIQMTQSPSSLSASVGDRVTITCKSSQSLLYSTNQKNFLAWYQQKPGKAPKLLIYWASTRDSGVPSRFSGSGSGTDFTLTISSLQPEDFATYYCQQYYSYPRTFGQGTKVEIK
As to B2, the relative binding (EC50 of the variant / EC50 of version 5) is more than 100.
